Test results: IntAct's records for PubMed 12628189

B1: Protein TEM1 (Saccharomyces cerevisiae), P38987 (parent)
chain: MATPSTGANNSIPAVRNQVEVQVGLVGDAQVGKTSLMVKYVQNIYDKEYTQTLGVNFLKRKVSIRSTDIIFSIMDLGGQREFINMLPIATVGSSVIIFLFDLTRPETLSSIKEWYRQAYGLNDSAIPILVGTKYDLLIDLDPEYQEQISRTSMKYAQVMNAPLIFCSTAKSINIQKIFKIALAKIFNLTLTIPEINEIGDPLLIYKHLGGQQHRHHNKSQDRKSHNIRKPSSSPSSKAPSPGVNT
partner: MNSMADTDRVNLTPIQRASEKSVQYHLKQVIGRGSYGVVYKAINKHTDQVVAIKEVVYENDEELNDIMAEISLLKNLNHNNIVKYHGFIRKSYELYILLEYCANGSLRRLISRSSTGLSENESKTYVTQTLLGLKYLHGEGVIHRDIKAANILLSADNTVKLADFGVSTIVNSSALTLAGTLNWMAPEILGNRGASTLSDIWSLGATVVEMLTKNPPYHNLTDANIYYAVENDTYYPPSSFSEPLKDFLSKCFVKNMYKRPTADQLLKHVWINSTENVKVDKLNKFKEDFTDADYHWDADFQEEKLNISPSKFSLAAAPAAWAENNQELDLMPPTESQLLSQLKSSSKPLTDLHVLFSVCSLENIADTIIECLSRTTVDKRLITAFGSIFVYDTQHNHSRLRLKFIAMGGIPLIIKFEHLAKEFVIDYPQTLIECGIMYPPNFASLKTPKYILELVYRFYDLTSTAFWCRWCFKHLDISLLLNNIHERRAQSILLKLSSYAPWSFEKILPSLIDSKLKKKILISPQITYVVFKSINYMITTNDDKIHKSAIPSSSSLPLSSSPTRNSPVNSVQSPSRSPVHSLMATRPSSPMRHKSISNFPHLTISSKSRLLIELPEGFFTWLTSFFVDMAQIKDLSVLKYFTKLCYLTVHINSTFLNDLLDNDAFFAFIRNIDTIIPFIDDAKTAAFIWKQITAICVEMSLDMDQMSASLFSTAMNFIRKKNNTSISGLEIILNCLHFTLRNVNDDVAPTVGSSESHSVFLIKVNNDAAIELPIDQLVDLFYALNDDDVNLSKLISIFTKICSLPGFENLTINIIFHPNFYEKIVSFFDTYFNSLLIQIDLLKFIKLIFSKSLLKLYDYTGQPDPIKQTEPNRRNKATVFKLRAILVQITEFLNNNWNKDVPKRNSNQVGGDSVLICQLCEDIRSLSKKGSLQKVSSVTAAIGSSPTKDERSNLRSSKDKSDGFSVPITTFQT
B2: Protein TEM1 (Saccharomyces cerevisiae), P38987 (parent)
chain: B1 chain
partner: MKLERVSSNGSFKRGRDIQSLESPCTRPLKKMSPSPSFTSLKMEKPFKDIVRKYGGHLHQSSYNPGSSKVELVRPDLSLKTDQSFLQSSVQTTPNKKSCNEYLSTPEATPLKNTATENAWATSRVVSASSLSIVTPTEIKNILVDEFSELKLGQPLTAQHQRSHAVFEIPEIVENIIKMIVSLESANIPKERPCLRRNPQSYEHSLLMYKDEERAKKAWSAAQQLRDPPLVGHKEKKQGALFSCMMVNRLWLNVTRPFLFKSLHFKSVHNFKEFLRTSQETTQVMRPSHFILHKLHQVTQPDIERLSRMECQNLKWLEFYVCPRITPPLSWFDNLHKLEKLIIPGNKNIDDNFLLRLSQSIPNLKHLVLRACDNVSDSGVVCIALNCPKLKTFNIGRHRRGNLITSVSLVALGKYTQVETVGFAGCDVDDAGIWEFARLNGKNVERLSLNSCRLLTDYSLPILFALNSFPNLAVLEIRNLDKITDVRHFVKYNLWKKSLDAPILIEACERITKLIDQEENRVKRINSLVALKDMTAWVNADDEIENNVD

Variants of: B1
Settings: with cdc15_yeast CDC15, P27636

effect of a mutation on the interaction	Variant
disrupting interaction	MATPSTGANNSIPAVRNQVEVQVGLVGDAQVGKTSLMVKYVQNIYDKEYTQTLGVNFLKRKVSIRSTDIIFSIMDLGGQREFINMLPIATVGSSVIIFLFDLTRPETLSSIKEWYRQAYGLNDSAIPILVGTKYALLIDLDPEYQEQISRTSMKYAQVMNAPLIFCSTAKSINIQKIFKIALAKIFNLTLTIPEINEIGDPLLIYKHLGGQQHRHHNKSQDRKSHNIRKPSSSPSSKAPSPGVNT [D135A]
disrupting interaction	MATPSTGANNSIPAVRNQVEVQVGLVGDAQVGKASLMVKYVQNIYDKEYTQTLGVNFLKRKVSIRSTDIIFSIMDLGGQREFINMLPIATVGSSVIIFLFDLTRPETLSSIKEWYRQAYGLNDSAIPILVGTKYDLLIDLDPEYQEQISRTSMKYAQVMNAPLIFCSTAKSINIQKIFKIALAKIFNLTLTIPEINEIGDPLLIYKHLGGQQHRHHNKSQDRKSHNIRKPSSSPSSKAPSPGVNT [T34A]

Variants of: B2
Settings: with amn1_yeast AMN1, P38285

effect of a mutation on the interaction	Variant
disrupting interaction	MATPSTGANNSIPAVRNQVEVQVGLVGDAQVGKTSLMVKYVQNIYDKEYTQTLGVNFLKRKVSIRSTDIIFSIMDLGGQREFINMLPIATVGSSVIIFLFDLTRPETLSSIKEWYRQAYGLNDSAIPILVGTKYALLIDLDPEYQEQISRTSMKYAQVMNAPLIFCSTAKSINIQKIFKIALAKIFNLTLTIPEINEIGDPLLIYKHLGGQQHRHHNKSQDRKSHNIRKPSSSPSSKAPSPGVNT [D135A]
decreasing interaction	MATPSTGANNSIPAVRNQVEVQVGLVGDAQVGKASLMVKYVQNIYDKEYTQTLGVNFLKRKVSIRSTDIIFSIMDLGGQREFINMLPIATVGSSVIIFLFDLTRPETLSSIKEWYRQAYGLNDSAIPILVGTKYDLLIDLDPEYQEQISRTSMKYAQVMNAPLIFCSTAKSINIQKIFKIALAKIFNLTLTIPEINEIGDPLLIYKHLGGQQHRHHNKSQDRKSHNIRKPSSSPSSKAPSPGVNT [T34A]
